According to US20220229068A1, “DETECTION OF PROTEIN TO PROTEIN INTERACTIONS” (THE GOVERNING COUNCIL OF THE UNIVERSITY OF TORONTO, priority 2019, published 2022):
Each block holds one substance with its values, some of them ahead of it.

Tests used:
Test in all cases: SIMPL ELISA, bait-IN/prey-CIC
[1] = molecular target: BCL2L1 (prey, CIC format) (human) (UniProt Q07817)
[2] = molecular target: GRB2 (prey, CIC format) (human) (UniProt P62993)
[3] = molecular target: CCNA1 (prey, CIC format) (human) (UniProt P78396)
[4] = molecular target: T1, DRAP1 (prey, CIC format) (human) (UniProt Q14919)
T1 sequence (looked up): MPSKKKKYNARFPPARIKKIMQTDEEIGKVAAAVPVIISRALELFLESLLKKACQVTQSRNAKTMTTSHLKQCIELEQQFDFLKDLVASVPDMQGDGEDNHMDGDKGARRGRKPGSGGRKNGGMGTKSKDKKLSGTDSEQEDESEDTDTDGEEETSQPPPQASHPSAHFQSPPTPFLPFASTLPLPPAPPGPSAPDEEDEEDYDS

[5] = molecular target: CD58 (prey, CIC format) (human) (UniProt P19256)
[6] = molecular target: CGB5 (prey, CIC format) (human) (UniProt P0DN86)
[7] = molecular target: MCM3 (prey, CIC format) (human) (UniProt P25205)
[8] = molecular target: T2, NCBP2 (prey, CIC format) (human) (UniProt P52298)
T2 sequence (looked up): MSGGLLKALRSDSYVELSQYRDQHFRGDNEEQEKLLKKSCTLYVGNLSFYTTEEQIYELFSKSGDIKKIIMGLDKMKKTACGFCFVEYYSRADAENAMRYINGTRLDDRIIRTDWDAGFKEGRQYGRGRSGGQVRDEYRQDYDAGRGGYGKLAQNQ

[9] = molecular target: DDIT3 (prey, CIC format) (human) (UniProt P35638)
[10] = molecular target: T3, NRG1 (prey, CIC format) (human) (UniProt Q02297)
T3 sequence (looked up): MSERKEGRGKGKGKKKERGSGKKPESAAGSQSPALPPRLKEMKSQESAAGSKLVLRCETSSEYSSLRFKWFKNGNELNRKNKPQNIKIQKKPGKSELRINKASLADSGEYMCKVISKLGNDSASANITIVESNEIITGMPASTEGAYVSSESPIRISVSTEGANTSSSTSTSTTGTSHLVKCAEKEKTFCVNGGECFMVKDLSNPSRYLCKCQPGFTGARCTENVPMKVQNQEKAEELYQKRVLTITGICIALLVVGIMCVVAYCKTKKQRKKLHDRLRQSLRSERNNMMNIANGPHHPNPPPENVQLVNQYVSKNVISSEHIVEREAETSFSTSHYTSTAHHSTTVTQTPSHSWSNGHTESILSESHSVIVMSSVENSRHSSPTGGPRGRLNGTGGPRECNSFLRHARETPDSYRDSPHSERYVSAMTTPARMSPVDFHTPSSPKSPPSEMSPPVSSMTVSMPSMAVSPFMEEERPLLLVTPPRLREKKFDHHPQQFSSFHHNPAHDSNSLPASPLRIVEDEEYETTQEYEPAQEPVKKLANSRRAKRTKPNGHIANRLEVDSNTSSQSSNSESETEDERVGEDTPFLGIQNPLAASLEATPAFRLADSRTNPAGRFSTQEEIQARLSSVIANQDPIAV

[11] = molecular target: PCNA (prey, CIC format) (human) (UniProt P12004)
[12] = molecular target: GRAP2 (prey, CIC format) (human) (UniProt O75791)
[13] = molecular target: CKS1B (prey, CIC format) (human) (UniProt P61024)
[14] = molecular target: T4, LAT (prey, CIC format) (human) (UniProt O43561)
T4 sequence (looked up): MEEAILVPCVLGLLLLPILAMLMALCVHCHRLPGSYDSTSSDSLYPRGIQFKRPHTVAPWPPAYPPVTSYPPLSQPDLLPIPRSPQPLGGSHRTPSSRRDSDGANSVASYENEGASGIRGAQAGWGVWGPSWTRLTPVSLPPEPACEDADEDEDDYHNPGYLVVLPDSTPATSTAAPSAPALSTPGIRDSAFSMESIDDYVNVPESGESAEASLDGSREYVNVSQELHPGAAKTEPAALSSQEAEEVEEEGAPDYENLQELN

[15] = molecular target: PPP3R1 (prey, CIC format) (human) (UniProt P63098)
[16] = molecular target: T5, RB1 (prey, CIC format) (human) (UniProt P06400)
T5 sequence (looked up): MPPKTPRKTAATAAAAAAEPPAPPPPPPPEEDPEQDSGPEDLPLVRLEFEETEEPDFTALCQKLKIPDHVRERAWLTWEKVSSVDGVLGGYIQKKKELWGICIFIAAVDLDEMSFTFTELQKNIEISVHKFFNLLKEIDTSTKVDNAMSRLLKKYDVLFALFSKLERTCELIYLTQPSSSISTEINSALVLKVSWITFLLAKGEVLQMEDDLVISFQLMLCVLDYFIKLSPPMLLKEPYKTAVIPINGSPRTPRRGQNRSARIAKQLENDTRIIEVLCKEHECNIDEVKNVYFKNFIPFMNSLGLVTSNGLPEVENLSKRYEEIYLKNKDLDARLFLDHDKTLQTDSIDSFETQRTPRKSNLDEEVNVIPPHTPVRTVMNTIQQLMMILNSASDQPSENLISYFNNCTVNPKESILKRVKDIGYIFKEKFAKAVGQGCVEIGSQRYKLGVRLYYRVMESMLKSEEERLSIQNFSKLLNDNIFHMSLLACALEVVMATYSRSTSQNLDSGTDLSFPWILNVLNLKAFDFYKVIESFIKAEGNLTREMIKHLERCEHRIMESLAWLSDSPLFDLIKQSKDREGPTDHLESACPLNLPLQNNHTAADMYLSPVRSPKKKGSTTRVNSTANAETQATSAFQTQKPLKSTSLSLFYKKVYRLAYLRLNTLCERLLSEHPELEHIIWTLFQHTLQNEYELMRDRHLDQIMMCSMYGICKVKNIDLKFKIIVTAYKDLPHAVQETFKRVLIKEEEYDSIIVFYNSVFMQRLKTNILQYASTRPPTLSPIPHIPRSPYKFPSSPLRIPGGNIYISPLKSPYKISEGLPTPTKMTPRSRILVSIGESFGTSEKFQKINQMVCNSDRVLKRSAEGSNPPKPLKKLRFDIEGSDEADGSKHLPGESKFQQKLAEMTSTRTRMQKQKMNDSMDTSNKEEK

[17] = molecular target: ZBTB16 (prey, CIC format) (human) (UniProt Q05516)
[18] = molecular target: NFE2L1 (prey, CIC format) (human) (UniProt Q14494)
[19] = molecular target: T6, PEX11B (prey, CIC format) (human) (UniProt O96011)
T6 sequence (looked up): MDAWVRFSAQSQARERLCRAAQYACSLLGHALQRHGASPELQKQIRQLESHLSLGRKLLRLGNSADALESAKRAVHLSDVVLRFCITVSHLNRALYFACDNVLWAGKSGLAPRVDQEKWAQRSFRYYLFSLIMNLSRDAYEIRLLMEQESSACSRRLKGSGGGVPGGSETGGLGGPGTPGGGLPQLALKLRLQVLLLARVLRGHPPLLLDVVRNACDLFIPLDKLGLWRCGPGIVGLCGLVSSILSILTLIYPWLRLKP

[20] = molecular target: TNFRSF10B (prey, CIC format) (human) (UniProt O14763)
[21] = molecular target: T7, MCM5 (prey, CIC format) (human) (UniProt P33992)
T7 sequence (looked up): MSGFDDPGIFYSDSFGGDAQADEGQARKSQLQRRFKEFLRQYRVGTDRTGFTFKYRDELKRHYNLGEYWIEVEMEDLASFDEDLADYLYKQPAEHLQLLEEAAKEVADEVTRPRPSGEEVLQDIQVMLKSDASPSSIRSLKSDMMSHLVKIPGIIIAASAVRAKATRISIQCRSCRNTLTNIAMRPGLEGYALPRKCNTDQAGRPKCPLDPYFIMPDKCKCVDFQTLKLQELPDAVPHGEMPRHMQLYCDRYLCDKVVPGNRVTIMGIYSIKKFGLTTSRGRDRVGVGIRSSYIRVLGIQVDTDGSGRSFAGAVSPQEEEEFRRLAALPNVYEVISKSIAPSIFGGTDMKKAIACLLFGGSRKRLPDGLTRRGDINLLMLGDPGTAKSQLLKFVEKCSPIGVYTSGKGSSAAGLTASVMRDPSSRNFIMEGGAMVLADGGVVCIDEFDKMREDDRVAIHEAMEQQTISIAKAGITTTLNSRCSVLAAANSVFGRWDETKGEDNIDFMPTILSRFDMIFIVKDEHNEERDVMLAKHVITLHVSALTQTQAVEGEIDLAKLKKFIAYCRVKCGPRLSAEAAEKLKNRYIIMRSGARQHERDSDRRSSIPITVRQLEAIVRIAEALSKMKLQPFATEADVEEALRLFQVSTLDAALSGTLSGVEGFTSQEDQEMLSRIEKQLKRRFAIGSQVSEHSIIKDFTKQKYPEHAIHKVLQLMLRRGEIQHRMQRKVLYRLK

[22] = molecular target: T8, S100B (prey, CIC format) (human) (UniProt P04271)
T8 sequence (looked up): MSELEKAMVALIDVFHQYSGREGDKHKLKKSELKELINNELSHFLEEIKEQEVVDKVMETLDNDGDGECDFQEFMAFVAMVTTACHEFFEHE

[23] = molecular target: T9, BATF (prey, CIC format) (human) (UniProt Q16520)
T9 sequence (looked up): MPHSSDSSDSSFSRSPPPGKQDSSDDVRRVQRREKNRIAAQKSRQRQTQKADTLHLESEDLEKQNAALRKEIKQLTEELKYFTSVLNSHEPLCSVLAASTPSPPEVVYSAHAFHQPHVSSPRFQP

[24] = molecular target: PEX16 (prey, CIC format) (human) (UniProt Q9Y5Y5)
[25] = molecular target: CASP3 (prey, CIC format) (human) (UniProt P42574)
[26] = molecular target: T10, DCP1A (prey, CIC format) (human) (UniProt Q9NPI6)
T10 sequence (looked up): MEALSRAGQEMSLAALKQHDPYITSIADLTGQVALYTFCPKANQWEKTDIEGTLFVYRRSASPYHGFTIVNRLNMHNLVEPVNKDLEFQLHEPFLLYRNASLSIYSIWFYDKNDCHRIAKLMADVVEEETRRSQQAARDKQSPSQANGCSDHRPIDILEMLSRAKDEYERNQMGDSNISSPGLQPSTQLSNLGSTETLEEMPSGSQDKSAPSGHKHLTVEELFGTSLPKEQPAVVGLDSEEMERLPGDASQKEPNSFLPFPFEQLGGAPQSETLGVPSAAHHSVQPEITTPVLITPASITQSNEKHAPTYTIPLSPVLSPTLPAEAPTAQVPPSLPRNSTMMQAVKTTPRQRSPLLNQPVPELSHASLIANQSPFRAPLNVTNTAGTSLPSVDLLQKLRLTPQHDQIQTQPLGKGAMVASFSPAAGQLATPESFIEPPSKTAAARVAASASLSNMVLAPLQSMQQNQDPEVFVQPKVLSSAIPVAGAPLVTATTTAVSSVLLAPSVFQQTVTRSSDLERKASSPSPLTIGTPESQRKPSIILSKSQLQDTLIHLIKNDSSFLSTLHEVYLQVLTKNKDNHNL

S100A1 (bait, IN format), sequence (P23297 whole entry): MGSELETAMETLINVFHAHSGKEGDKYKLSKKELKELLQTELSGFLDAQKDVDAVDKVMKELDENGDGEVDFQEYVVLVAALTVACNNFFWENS
PCNA (prey, CIC format) (human), sequence (P12004 whole entry): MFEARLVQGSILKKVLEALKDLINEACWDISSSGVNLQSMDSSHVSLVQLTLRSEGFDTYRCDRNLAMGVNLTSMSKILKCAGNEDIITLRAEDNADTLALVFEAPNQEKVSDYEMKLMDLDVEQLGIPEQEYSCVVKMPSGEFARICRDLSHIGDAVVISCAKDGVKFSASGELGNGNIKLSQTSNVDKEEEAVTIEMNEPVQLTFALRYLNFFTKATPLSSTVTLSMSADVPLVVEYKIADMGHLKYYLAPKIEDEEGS
MCM3 (prey, CIC format) (human), sequence (P25205 whole entry): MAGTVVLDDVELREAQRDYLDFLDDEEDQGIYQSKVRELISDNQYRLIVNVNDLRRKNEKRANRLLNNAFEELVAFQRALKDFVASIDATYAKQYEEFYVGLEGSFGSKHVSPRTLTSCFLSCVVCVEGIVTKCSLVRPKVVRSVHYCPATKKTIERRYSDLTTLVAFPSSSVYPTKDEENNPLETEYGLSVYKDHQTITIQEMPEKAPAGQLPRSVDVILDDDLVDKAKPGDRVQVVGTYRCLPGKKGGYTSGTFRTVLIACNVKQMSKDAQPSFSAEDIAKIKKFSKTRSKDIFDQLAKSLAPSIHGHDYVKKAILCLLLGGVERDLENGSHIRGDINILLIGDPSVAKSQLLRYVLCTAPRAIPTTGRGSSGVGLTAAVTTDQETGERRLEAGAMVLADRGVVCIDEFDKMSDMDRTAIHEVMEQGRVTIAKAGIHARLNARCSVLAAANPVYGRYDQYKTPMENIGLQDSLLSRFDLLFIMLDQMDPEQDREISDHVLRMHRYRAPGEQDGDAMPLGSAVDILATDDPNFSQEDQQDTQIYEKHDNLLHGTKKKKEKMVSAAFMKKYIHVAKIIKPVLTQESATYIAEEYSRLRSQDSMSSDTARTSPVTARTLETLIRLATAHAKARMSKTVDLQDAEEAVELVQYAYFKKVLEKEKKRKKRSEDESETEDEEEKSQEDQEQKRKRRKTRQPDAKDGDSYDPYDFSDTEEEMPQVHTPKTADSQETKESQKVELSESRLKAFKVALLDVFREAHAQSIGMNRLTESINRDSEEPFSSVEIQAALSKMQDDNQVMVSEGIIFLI
NFE2L1 (prey, CIC format) (human), sequence (Q14494 whole entry): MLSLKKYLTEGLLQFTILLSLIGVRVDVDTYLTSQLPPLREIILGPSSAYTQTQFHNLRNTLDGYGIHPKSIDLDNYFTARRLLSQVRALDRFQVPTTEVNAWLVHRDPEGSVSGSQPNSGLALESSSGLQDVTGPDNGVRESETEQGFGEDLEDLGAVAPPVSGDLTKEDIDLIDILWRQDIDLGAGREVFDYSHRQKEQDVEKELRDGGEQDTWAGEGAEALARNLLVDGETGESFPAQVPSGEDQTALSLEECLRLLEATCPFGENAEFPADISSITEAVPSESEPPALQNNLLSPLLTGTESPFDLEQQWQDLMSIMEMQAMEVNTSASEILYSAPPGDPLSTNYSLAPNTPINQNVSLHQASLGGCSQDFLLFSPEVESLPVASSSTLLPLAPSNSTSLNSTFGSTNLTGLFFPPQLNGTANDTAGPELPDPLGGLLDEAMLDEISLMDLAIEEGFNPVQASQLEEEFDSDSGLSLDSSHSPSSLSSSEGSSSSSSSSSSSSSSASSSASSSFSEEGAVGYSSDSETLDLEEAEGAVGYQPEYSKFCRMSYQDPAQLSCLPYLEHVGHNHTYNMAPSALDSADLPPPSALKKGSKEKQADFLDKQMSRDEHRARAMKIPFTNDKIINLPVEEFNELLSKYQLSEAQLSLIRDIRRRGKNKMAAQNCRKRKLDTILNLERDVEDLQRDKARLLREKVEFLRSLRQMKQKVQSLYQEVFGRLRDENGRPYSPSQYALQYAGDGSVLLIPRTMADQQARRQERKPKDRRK
CASP3 (prey, CIC format) (human), sequence (P42574 whole entry): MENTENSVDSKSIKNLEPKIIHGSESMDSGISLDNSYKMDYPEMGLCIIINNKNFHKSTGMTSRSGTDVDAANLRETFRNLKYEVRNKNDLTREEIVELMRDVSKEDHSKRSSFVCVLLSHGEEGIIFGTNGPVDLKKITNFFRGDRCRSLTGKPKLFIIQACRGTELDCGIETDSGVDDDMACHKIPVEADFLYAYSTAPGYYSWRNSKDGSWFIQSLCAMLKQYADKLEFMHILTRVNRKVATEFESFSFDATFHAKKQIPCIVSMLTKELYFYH
BCL2L1 (prey, CIC format) (human), sequence (Q07817 whole entry): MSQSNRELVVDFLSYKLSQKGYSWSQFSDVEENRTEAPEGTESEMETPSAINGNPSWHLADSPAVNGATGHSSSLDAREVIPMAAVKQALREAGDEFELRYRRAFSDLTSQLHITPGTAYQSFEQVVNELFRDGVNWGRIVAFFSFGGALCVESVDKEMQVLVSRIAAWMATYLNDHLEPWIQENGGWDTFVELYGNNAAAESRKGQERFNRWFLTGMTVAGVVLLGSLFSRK
HDAC1 (bait, IN format), sequence (Q13547 whole entry): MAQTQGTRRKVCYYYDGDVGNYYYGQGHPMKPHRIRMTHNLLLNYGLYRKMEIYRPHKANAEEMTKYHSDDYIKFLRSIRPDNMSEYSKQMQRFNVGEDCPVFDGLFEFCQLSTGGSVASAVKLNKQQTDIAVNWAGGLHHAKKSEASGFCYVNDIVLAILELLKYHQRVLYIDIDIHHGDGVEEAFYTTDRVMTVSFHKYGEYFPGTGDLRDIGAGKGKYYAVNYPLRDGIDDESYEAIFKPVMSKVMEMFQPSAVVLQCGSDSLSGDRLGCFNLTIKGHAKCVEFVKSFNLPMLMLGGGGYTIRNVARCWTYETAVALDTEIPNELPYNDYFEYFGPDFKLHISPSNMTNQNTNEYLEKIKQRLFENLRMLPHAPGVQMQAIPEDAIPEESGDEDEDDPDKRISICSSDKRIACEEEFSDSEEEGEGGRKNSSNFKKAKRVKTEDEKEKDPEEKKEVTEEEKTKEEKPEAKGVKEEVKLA
DDIT3 (prey, CIC format) (human), sequence (P35638 whole entry): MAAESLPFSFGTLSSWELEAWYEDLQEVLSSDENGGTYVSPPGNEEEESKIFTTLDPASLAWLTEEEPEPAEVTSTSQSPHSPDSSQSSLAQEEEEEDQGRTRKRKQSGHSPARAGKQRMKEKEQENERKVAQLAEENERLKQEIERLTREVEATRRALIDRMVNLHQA
CD58 (prey, CIC format) (human), sequence (P19256 29-250 limits assumed): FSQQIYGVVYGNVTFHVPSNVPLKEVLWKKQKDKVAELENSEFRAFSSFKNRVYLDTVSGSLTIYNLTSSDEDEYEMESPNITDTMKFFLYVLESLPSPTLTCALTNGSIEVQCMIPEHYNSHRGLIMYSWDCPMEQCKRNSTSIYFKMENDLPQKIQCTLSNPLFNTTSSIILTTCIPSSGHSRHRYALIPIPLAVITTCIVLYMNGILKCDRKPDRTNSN
ZBTB16 (prey, CIC format) (human), sequence (Q05516 whole entry): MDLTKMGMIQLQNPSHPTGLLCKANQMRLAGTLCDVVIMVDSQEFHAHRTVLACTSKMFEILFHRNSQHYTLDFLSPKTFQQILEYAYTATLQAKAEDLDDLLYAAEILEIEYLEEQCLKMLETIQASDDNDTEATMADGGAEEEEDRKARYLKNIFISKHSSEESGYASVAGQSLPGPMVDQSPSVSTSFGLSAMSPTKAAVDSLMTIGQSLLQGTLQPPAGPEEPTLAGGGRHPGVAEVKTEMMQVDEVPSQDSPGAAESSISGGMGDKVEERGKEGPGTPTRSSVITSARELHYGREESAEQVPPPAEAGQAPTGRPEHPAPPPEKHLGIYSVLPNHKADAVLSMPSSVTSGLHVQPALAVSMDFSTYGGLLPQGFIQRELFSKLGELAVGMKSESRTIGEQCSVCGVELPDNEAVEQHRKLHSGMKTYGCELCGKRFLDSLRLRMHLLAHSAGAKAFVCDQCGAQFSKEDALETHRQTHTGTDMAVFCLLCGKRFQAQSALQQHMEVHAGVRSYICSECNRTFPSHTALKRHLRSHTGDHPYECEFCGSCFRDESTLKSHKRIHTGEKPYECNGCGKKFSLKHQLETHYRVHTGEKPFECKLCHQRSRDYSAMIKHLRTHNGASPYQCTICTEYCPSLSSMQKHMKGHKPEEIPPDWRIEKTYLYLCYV
PEX16 (prey, CIC format) (human), sequence (Q9Y5Y5 whole entry): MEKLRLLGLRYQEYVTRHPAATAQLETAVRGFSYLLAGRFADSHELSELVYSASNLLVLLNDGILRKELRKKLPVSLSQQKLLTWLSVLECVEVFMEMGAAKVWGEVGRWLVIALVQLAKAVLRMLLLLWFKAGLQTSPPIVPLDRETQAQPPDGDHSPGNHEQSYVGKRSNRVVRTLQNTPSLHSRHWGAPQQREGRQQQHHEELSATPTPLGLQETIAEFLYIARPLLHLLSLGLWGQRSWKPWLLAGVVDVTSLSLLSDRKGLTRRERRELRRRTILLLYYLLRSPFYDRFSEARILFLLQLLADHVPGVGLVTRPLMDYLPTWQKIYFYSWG
PPP3R1 (prey, CIC format) (human), sequence (P63098 whole entry): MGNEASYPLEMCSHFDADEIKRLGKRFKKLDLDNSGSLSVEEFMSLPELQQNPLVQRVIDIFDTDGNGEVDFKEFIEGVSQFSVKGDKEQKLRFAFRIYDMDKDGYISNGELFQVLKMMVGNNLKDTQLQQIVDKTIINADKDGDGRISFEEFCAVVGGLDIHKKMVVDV
GRAP2 (prey, CIC format) (human), sequence (O75791 whole entry): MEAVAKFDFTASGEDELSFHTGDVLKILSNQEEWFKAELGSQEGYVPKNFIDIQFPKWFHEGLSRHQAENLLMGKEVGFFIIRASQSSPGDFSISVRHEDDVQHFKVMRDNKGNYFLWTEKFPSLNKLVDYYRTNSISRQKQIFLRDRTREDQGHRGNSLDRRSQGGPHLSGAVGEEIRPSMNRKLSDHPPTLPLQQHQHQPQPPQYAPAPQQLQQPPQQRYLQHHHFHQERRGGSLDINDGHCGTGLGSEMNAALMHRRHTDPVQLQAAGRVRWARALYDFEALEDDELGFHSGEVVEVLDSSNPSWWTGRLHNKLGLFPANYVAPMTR

- PLU mean [1]: 0.272
- PLU mean [2]: 2.61
Substance: CBLB (bait, IN format) (from UniProt Q13191 1-982)

- PLU mean [3]: 0.686
- PLU mean [4]: 0.229
Substance: CDKN1B (bait, IN format) (from UniProt P46527 1-198)

- PLU mean [5]: 0.131
- PLU mean [6]: 0.435
- PLU mean [7]: 0.0738
- PLU mean [8]: 0.0363
Substance: CGA (bait, IN format) (from UniProt P01215 25-116) (ligand)

- PLU mean [9]: 0.28
- PLU mean [10]: 1.22
- PLU mean [11]: 0.0812
Substance: ERBB3 (bait, IN format) (from UniProt P21860 20-1342) (receptor)

- PLU mean [12]: 0.342
- PLU mean [11]: 0.349
Substance: FEN1 (bait, IN format) (from UniProt P39748 1-380) (enzyme)

- PLU mean [13]: 0.171
Substance: HBA2 (bait, IN format) (from UniProt P69905 1-142)

- PLU mean [14]: 0.222
- PLU mean [15]: 0.247
- PLU mean [16]: 0.54
- PLU mean [17]: 0.492
Substance: HDAC1 (bait, IN format) (from UniProt Q13547 1-482) (enzyme)

- PLU mean [18]: 1.72
- PLU mean [19]: 0.341
- PLU mean [20]: 0.459
Substance: MAFG (bait, IN format) (from UniProt O15525 1-162)

- PLU mean [7]: 0.938
- PLU mean [21]: 0.35
- PLU mean [22]: 0.102
Substance: MCM2 (bait, IN format) (from UniProt P49736 1-904)

- PLU mean [23]: 0.154
- PLU mean [19]: 1.18
- PLU mean [24]: 1.09
Substance: PEX19 (bait, IN format) (from UniProt P40855 1-299)

- PLU mean [25]: 0.158
- PLU mean [22]: 0.822
Substance: S100A1 (bait, IN format) (from UniProt P23297 1-94)

- PLU mean [26]: 0.398
- PLU mean [14]: 0.215
Substance: SMAD4 (bait, IN format) (from UniProt Q13485 1-552)
